Reference: the supplement of paper PMC9112550, “Optimization of the antimicrobial peptide Bac7 by deep mutational scanning” (BMC Biology, 2022)

Tested on: Escherichia coli TOP10
Test: shrunken log2 fold change of peptide-encoding DNA abundance (4.5 h post-induction vs induction); higher = less antimicrobial activity (less host growth inhibition)
Conditions: time post-induction: 4.5 h; library: site-saturation at positions 5, 18, 19, 20
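Further: peptides expressed intracellularly from a pBAD plasmid library in pooled LB shake-flask culture, induced with 0.3% L-arabinose, DNA abundance read by NGS, three biological replicates, DESeq2 with apeglm shrinkage.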

Sequence	shrunken log2 fold change
RRIRIRPPRLPRPRPRPPMSPRP	-0.288
RRIRARPPRLPRPRPRPNHWPRP	0.0522
RRIRRRPPRLPRPRPRPISNPRP	-0.269
RRIRVRPPRLPRPRPRPYAAPRP	-0.3
RRIRIRPPRLPRPRPRPSEIPRP	0.0838
RRIRQRPPRLPRPRPRPFWMPRP	0.00494
RRIRIRPPRLPRPRPRPTVIPRP	-0.108
RRIRTRPPRLPRPRPRPLAHPRP	-0.256
RRIRVRPPRLPRPRPRPNIWPRP	-0.13
RRIRTRPPRLPRPRPRPDGSPRP	0.0485
RRIRKRPPRLPRPRPRPYADPRP	-0.0355
RRIRQRPPRLPRPRPRPSQCPRP	-0.0618
RRIRPRPPRLPRPRPRPNGAPRP	0.327
RRIRGRPPRLPRPRPRPMVNPRP	0.744
RRIRHRPPRLPRPRPRPPSGPRP	0.771
RRIRSRPPRLPRPRPRPDCRPRP	0.0345
RRIRTRPPRLPRPRPRPDYGPRP	0.00355
RRIRARPPRLPRPRPRPCNQPRP	-0.253
RRIRRRPPRLPRPRPRPSCEPRP	0.13
RRIRVRPPRLPRPRPRPRREPRP	0.495
RRIRVRPPRLPRPRPRPVFSPRP	-0.176
RRIRERPPRLPRPRPRPCSDPRP	-0.5
RRIRFRPPRLPRPRPRPNAKPRP	-0.00228
RRIRVRPPRLPRPRPRPFKNPRP	-0.055
RRIRMRPPRLPRPRPRPAYMPRP	-0.0929

Sequence	shrunken log2 fold change
RRIRGRPPRLPRPRPRPTHDPRP	1.72
RRIRGRPPRLPRPRPRPIMMPRP	-0.0902
RRIRTRPPRLPRPRPRPTKEPRP	-0.0327
RRIRARPPRLPRPRPRPPFDPRP	0.922
RRIRYRPPRLPRPRPRPDTQPRP	-0.00672
RRIRYRPPRLPRPRPRPPWYPRP	-0.786
RRIRRRPPRLPRPRPRPEWMPRP	0.126
RRIRWRPPRLPRPRPRPSDIPRP	-0.031
RRIRLRPPRLPRPRPRPVFNPRP	-0.448
RRIRMRPPRLPRPRPRPGWEPRP	0.888
RRIRSRPPRLPRPRPRPEASPRP	0.715
RRIRDRPPRLPRPRPRPGCMPRP	0.206
RRIRTRPPRLPRPRPRPEFEPRP	0.0862
RRIRYRPPRLPRPRPRPIHFPRP	-0.679
RRIRVRPPRLPRPRPRPVAEPRP	0.104
RRIRWRPPRLPRPRPRPLPDPRP	0.672
RRIRTRPPRLPRPRPRPEIIPRP	0.095
RRIRLRPPRLPRPRPRPLHKPRP	0.223
RRIRTRPPRLPRPRPRPVYLPRP	-1.16
RRIRMRPPRLPRPRPRPVGPPRP	0.67
RRIRNRPPRLPRPRPRPNSKPRP	-0.331
RRIRTRPPRLPRPRPRPFHQPRP	-0.126
RRIRSRPPRLPRPRPRPNNPPRP	-0.3
RRIRIRPPRLPRPRPRPKDDPRP	-0.254
RRIRCRPPRLPRPRPRPMHCPRP	-0.107

Sequence	shrunken log2 fold change
RRIRTRPPRLPRPRPRPHDGPRP	-0.0845
RRIRLRPPRLPRPRPRPWVLPRP	-0.0289
RRIRFRPPRLPRPRPRPVGFPRP	-0.0508
RRIRDRPPRLPRPRPRPWMPPRP	-0.11
RRIRLRPPRLPRPRPRPQPMPRP	0.216
RRIRGRPPRLPRPRPRPYYSPRP	-0.207
RRIRWRPPRLPRPRPRPWYDPRP	-0.31
RRIRKRPPRLPRPRPRPEEPPRP	3.09
RRIRIRPPRLPRPRPRPVIVPRP	-0.214
RRIRWRPPRLPRPRPRPTALPRP	0.257
RRIRCRPPRLPRPRPRPISIPRP	-0.443
RRIRARPPRLPRPRPRPIAWPRP	0.442
RRIRIRPPRLPRPRPRPYHAPRP	-0.0781
RRIRKRPPRLPRPRPRPCMSPRP	-0.0865
RRIRMRPPRLPRPRPRPGFDPRP	0.908
RRIRYRPPRLPRPRPRPNASPRP	-0.088
RRIRGRPPRLPRPRPRPECSPRP	1.2
RRIRERPPRLPRPRPRPSHIPRP	-0.25
RRIRTRPPRLPRPRPRPYQKPRP	-0.197
RRIRARPPRLPRPRPRPYRIPRP	0.11
RRIRPRPPRLPRPRPRPRVAPRP	0.743
RRIRPRPPRLPRPRPRPSSEPRP	0.174
RRIRRRPPRLPRPRPRPILIPRP	0.118
RRIRVRPPRLPRPRPRPSRWPRP	0.278
RRIRCRPPRLPRPRPRPQSFPRP	-0.253

Sequence	shrunken log2 fold change
RRIRVRPPRLPRPRPRPGFTPRP	-0.143
RRIRGRPPRLPRPRPRPAYNPRP	-0.34
RRIRVRPPRLPRPRPRPPKCPRP	-0.173
RRIRQRPPRLPRPRPRPLNIPRP	-0.315
RRIRLRPPRLPRPRPRPYRWPRP	-0.0173
RRIRNRPPRLPRPRPRPHNRPRP	0.0237
RRIRARPPRLPRPRPRPWFKPRP	-0.0366
RRIRTRPPRLPRPRPRPTSTPRP	-0.0605
RRIRARPPRLPRPRPRPLPYPRP	0.0356
RRIRRRPPRLPRPRPRPHPSPRP	-0.0167
RRIRTRPPRLPRPRPRPSQIPRP	-0.0567
RRIRRRPPRLPRPRPRPASSPRP	-0.0219
RRIRVRPPRLPRPRPRPIFQPRP	-0.052
RRIRIRPPRLPRPRPRPLSIPRP	-0.493
RRIRTRPPRLPRPRPRPPPMPRP	0.54
RRIRERPPRLPRPRPRPPFGPRP	0.577
RRIRCRPPRLPRPRPRPCPIPRP	-0.52
RRIRGRPPRLPRPRPRPNMAPRP	0.875
RRIRTRPPRLPRPRPRPWDHPRP	-0.155
RRIRCRPPRLPRPRPRPTQHPRP	0.349
RRIRIRPPRLPRPRPRPHFVPRP	-0.565
RRIRWRPPRLPRPRPRPMRGPRP	0.754
RRIRDRPPRLPRPRPRPVQCPRP	-0.242
RRIRGRPPRLPRPRPRPAGVPRP	0.742
RRIRQRPPRLPRPRPRPCQTPRP	0.00707

Sequence	shrunken log2 fold change
RRIRRRPPRLPRPRPRPDPVPRP	0.0811
RRIRARPPRLPRPRPRPVPQPRP	0.271
RRIRIRPPRLPRPRPRPIFHPRP	-0.411
RRIRFRPPRLPRPRPRPEPVPRP	0.326
RRIRNRPPRLPRPRPRPCHTPRP	-0.316
RRIRGRPPRLPRPRPRPYVVPRP	-0.0656
RRIRPRPPRLPRPRPRPTVIPRP	-0.28
RRIRERPPRLPRPRPRPIWFPRP	0.0591
RRIRNRPPRLPRPRPRPKWVPRP	0.132
RRIRDRPPRLPRPRPRPVWWPRP	-0.00968
RRIRGRPPRLPRPRPRPTPEPRP	0.917
RRIRVRPPRLPRPRPRPHKYPRP	-0.725
RRIRFRPPRLPRPRPRPNPEPRP	-0.197
RRIRLRPPRLPRPRPRPNLRPRP	-0.0377
RRIRSRPPRLPRPRPRPAYFPRP	-0.297
RRIRWRPPRLPRPRPRPRNMPRP	-0.0758
RRIRDRPPRLPRPRPRPEVYPRP	-0.00999
RRIRLRPPRLPRPRPRPGDHPRP	-0.202
RRIRSRPPRLPRPRPRPAIAPRP	-0.00626
RRIRYRPPRLPRPRPRPLMQPRP	-0.283
RRIRDRPPRLPRPRPRPNWLPRP	0.0018
RRIRMRPPRLPRPRPRPNFVPRP	0.0215
RRIRPRPPRLPRPRPRPQEKPRP	-0.0282
RRIRYRPPRLPRPRPRPMYPPRP	-0.00192
RRIRERPPRLPRPRPRPCFGPRP	-0.252

Sequence	shrunken log2 fold change
RRIRERPPRLPRPRPRPIPFPRP	-0.0238
RRIRERPPRLPRPRPRPYIQPRP	-0.184
RRIRPRPPRLPRPRPRPMWGPRP	0.0327
RRIRSRPPRLPRPRPRPFHGPRP	-0.00545
RRIRCRPPRLPRPRPRPGVYPRP	-0.0723
RRIRGRPPRLPRPRPRPNVTPRP	0.35
RRIRARPPRLPRPRPRPFEEPRP	0.424
RRIRSRPPRLPRPRPRPCYKPRP	-0.281
RRIRQRPPRLPRPRPRPVPCPRP	0.0476
RRIRVRPPRLPRPRPRPRYWPRP	0.338
RRIRYRPPRLPRPRPRPGPMPRP	-0.148
RRIRQRPPRLPRPRPRPMDIPRP	-0.155
RRIRHRPPRLPRPRPRPNIIPRP	-0.307
RRIRWRPPRLPRPRPRPNSEPRP	-0.071
RRIRNRPPRLPRPRPRPPNAPRP	0.313
RRIRGRPPRLPRPRPRPQINPRP	0.324
RRIRDRPPRLPRPRPRPKQCPRP	0.101
RRIRPRPPRLPRPRPRPVSNPRP	-0.622
RRIRLRPPRLPRPRPRPPVDPRP	0.539
RRIRYRPPRLPRPRPRPSRIPRP	0.0535
RRIRNRPPRLPRPRPRPWFVPRP	-0.429
RRIRMRPPRLPRPRPRPTQVPRP	1.17
RRIRERPPRLPRPRPRPVRTPRP	0.496
RRIRMRPPRLPRPRPRPCYMPRP	-0.605
RRIRKRPPRLPRPRPRPALLPRP	0.246
